The target of this assay is tau seeds from spinal cords of P301S transgenic animals (human), P10636. In words: cell-based or functional assay.
tau seeds from spinal cords of P301S transgenic animals (human), P10636, sequence (P10636 other isoform, or with tags, fused parts or gaps P301S P301S): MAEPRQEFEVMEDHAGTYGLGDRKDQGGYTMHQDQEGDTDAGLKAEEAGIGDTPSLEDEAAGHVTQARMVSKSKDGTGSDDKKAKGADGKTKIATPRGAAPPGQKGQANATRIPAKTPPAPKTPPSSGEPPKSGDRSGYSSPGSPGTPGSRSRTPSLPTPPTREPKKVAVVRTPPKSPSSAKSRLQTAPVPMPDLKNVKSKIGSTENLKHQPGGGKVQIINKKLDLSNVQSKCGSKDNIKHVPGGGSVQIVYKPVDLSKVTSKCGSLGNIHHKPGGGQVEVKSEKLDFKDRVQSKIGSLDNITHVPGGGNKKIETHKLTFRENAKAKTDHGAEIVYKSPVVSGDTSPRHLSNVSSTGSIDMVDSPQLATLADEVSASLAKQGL

B1: PT3 (mouse-hybridoma-derived antibody) (antibody, V domains shown)
VH: EVKLVESGGDLVKPGGSLKLSCAASGFTFSSYAMSWVRQNPEKRLEWVASISKGGNTYYPNSVKGRFTISRDNARNILYLQMSSLRSEDTALYYCARGWGDYGWFAYWGQVTLVTVSA
VL: DIKMTQSPSSMYASLGERVTITCKASQDINRYLNWFQQKPGKSPKTLIYRANRLLDGVPSRFSGSGSGQDYSLTISSLDYEDMGIYYCLQYDEFPLTFGDGTKLELK
modifications: here or on the partner: aggregated
B1: the FRET/P301S spinal cord immunodepletion assay, 300 nM antibody (% of negative control) was 96.2; the blocking of aggregate induction (FRET assay) at 3 nM came out at 30.7%; the blocking of aggregate induction (FRET assay) at 30 nM turned out to be 37%; the inhibition of K18 aggregate induction, FRET/P301S spinal cord co-incubation assay, 300 nM antibody (% of negative control) stood at 34.
